Assay results: patent US20250179176A1, “ANTI-TIGIT ANTIBODIES AND USES OF THE SAME” (ARCUS BIOSCIENCES, INC., priority 2022, published 2025)

B1: domvanalimab: anti-TIGIT antibody with engineered IgG1 Fc, reduced FcγR binding; heavy chain SEQ ID NO: 12, light chain SEQ ID NO: 13 (antibody)
heavy: EVQLVESGGGLVQPGGSLRLSCAASGFTFSNFGMHWVRQAPGKGLEWVAFISSGSSSIYYADTVKGRFTISRDNAKNSLYLQMNSLRAEDTAVYYCARMRLDYYAMDYWGQGTMVTVSSASTKGPSVFPLAPSSKSTSGGTAALGCLVKDYFPEPVTVSWNSGALTSGVHTFPAVLQSSGLYSLSSVVTVPSSSLGTQTYICNVNHKPSNTKVDKKVEPKSCDKTHTCPPCPAPEAAGGPSVFLFPPKPKDTLMISRTPEVTCWVDVSHEDPEVKFNWYVDGVEVHNAKTKPREEQYNSTYRWSVLTVLHQDWLNGKEYKCKVSNKALPAPIEKTISKAKGQPREPQVYTLPPSRDELTKNQVSLTCLVKGFYPSDIAVEWESNGQPENNYKTTPPVLDSDGSFFLYSKLTVDKSRWQQGNVFSCSVMHEALHNHYTQKSLSLSPGK
light: DIQMTQSPSSLSASVGDRVTITCRASKSISKYLAWYQQKPGKAPKLLIYSGSTLQSGVPSRFSGSGSGTDFTLTISSLQPEDFATYYCQQHNEYPWTFGGGTKVEIKRTVAAPSVFIFPPSDEQLKSGTASWCLLNNFYPREAKVQWKVDNALQSGNSQESVTEQDSKDSTYSLSSTLTLSKADYEKHKVYACEVTHQGLSSPVTKSFNRGEC

Columns and labels:
CD8+ T cells = test: Ki67 on circulating CD8+ T cells (whole blood flow cytometry); assay type: in vivo, human
Experimental: Quantitation of Ki-67, a nuclear protein associated with cell cycle, is a common method to evaluate cell proliferation, especially in human samples ex vivo.
Immune cell profiling was conducted in whole blood by flow cytometry. For patients enrolled in the study described in Example 5 or Example 6, Ki67 changes on CD8^+ T cells were evaluated in whole blood by similar methods. Extracellular staining cocktails which included (minimally) CD3, CD8, and CD56 antibodies were added to 500 ul of whole blood and incubated on ice for 30 minutes. These markers were used to identify CD8^+ T cells (CD3^+CD56^− CD8^+) in both studies. For patients in the study of Example 6, extracellular cocktails also included CD45RA, CD39, and CD103 antibodies to identify an antigen-experienced memory CD8^+ T cell population (CD3^+CD56^−CD8^+CD45RA^−CD39^+CD103^+). Following extracellular staining, all blood samples were fixed and lysed using 1×BD FACSLyse buffer for 20 minutes on ice and then stored at −80° C. for up to 6 weeks. Upon thawing, samples were centrifuged at 400×g for 5 min to remove the lysing solution, washed in PBS, and then fixed and permeabilized in 100 ul of 1×FoxP3 Fixation Buffer for 1 hour at room temperature. […] The maximum fold change observed with the first cycle of treatment (between C1D1 and C2D29) was also determined for Ki67 expression on CD8^+ T cells.

[1] = Phase 2 study in front-line NSCLC (ARC-7), safety
[2] = all domvanalimab containing arms, 74 participants, initial cutoff

Molecule | proliferating CD8+ T cells (CD8+ T cells; patients of the Example 6 study, PD-L1hi NSCLC) | Any TEAEs Leading to Death ([1]; Table 4, initial cutoff) | SAE COVID-19, events ([1]; Table 7, initial cutoff) | SAE COVID-19, subjects ([1]; Table 7, initial cutoff) | Any TEAEs Leading to Death ([1]; Table 10, later cutoff) | Any TEAEs Leading to Death, related to study treatment ([1]; Table 10, later cutoff) | Grade 5 TEAEs related to study treatment (per physician assessment) ([1]; safety population (149 patients)) | proliferative marker (Ki67) on circulating CD8+ T cells (CD8+ T cells; patients of the Example 5 study) | fatal case of myocarditis related to study treatment ([1]; 74 participants, case received domvanalimab and zimberelimab) | fatal case of pneumonitis related to study treatment ([1]; 74 participants, case received domvanalimab, zimberelimab and etrumadenant) | TEAE leading to domvanalimab dose modification/interruption [1, 2] | discontinued domvanalimab due to a TEAE [1, 2] | participants with TEAE Grade ≥3 [1, 2] | participants with TEAEs Grade ≥3 related to domvanalimab [1, 2] | participants with at least 1 TEAE [1, 2] | participants with serious adverse events [1, 2] | participants with treatment related AE related to domvanalimab [1, 2] | participants with treatment related SAEs [1, 2]
zimberelimab: antagonistic PD-1 antibody, immune checkpoint inhibitor | Increases | 3 (8) n (%) | 0 n | 0 n (%) | 3 (6.0) n (%) | 1 (2.0) n (%) | interstitial lung disease |  |  |  |  |  |  |  |  |  |  | 
B1 |  |  |  |  |  |  |  | increases | 1.3% | 1.3% | 27.0% | 4.0% | 45.9% | 10.8% | 93.2% | 25.6% | 56.7% | 8.3%
